Measurements: US20130011380A1
Each block holds one substance with its values, some of them ahead of it.

How the values were obtained:
Assay in all cases: anti-Flag IP-MS, mES nuclear extract
Cttn (mouse) = Cttn (mouse) (UniProt Q60598)
Dnmt3b (mouse) = Dnmt3b (mouse) (UniProt O88509)
Sfrs17b (mouse) = Sfrs17b (mouse) (UniProt A2A3V1)
Akap8 (mouse) = Akap8 (mouse) (UniProt Q9DBR0)
Chd4 (mouse) = Chd4 (mouse) (UniProt Q6PDQ2)
Uba1 (mouse) = Uba1 (mouse) (UniProt Q02053)
Ogt (mouse) = Ogt (mouse) (UniProt Q8CGY8)
Ogt (mouse), sequence (Q8CGY8 2-1046 limits assumed): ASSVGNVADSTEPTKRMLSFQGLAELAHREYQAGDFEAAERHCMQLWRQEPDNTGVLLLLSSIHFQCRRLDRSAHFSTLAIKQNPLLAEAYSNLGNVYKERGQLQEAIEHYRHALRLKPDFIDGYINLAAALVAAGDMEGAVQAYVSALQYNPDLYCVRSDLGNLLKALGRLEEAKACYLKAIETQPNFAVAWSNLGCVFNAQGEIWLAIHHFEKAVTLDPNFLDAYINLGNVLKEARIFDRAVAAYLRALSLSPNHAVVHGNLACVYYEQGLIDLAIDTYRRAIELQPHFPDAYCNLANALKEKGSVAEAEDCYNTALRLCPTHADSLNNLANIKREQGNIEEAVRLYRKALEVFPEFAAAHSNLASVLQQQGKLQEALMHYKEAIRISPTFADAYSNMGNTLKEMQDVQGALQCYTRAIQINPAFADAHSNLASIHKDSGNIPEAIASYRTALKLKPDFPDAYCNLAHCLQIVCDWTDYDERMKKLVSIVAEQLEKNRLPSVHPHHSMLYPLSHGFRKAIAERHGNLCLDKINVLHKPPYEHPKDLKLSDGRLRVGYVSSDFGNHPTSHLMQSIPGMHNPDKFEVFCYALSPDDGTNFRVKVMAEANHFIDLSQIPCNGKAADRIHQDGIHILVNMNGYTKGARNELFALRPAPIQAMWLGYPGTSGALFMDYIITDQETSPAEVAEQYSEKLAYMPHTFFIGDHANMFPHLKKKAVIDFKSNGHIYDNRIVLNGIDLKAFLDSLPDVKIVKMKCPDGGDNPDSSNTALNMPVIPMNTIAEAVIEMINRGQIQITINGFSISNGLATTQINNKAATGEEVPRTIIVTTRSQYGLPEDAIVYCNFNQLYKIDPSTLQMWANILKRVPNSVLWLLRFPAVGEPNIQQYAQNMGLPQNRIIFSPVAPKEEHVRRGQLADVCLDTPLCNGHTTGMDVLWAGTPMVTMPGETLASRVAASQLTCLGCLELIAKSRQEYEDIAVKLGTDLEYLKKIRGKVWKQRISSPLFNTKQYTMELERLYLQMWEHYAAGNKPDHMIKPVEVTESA

Ssr1 (mouse) = Ssr1 (mouse) (UniProt Q9CY50)
Hspd1 (mouse) = Hspd1 (mouse) (UniProt P63038)
Cbx1 (mouse) = Cbx1 (mouse) (UniProt P83917)
Nup160 (mouse) = Nup160 (mouse) (UniProt Q9Z0W3)
Rad21 (mouse) = Rad21 (mouse) (UniProt Q61550)
Akr1b3 (mouse) = Akr1b3 (mouse) (UniProt P45376)
Ywhae (mouse) = Ywhae (mouse) (UniProt P62259)
Ywhae (mouse), sequence (P62259 whole entry): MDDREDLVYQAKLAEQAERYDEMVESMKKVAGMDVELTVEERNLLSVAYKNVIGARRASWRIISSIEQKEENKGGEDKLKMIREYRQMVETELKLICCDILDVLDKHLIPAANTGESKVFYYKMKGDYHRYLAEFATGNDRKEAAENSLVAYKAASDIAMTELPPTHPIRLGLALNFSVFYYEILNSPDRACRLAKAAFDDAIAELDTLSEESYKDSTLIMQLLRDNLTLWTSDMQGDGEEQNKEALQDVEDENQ

Smarca4 (mouse) = Smarca4 (mouse) (UniProt Q3TKT4)
Hspa5 (mouse) = Hspa5 (mouse) (UniProt P20029)
Dnmt3l (mouse) = Dnmt3l (mouse) (UniProt Q9CWR8)
Pou5f1 (mouse) = Pou5f1 (mouse) (UniProt P20263)
Ddb1 (mouse) = Ddb1 (mouse) (UniProt Q3U1J4)
Rif1 (mouse) = Rif1 (mouse) (UniProt Q6PR54)
Cct7 (mouse) = Cct7 (mouse) (UniProt P80313)
Seh1l (mouse) = Seh1l (mouse) (UniProt Q8R2U0)
Vdac1 (mouse) = Vdac1 (mouse) (UniProt Q60932)
Gcn1l1 (mouse) = Gcn1l1 (mouse) (UniProt E9PVA8)
Nup188 (mouse) = Nup188 (mouse) (UniProt Q6ZQH8)
Tet1 (mouse) = Tet1 (mouse) (UniProt Q3URK3)
Mcm4 (mouse) = Mcm4 (mouse) (UniProt P49717)
Hmga1 (mouse) = Hmga1 (mouse) (UniProt P17095)
Zfp281 (mouse) = Zfp281 (mouse) (UniProt Q99LI5)
Pcnt (mouse) = Pcnt (mouse) (UniProt P48725)
Aff1 (mouse) = Aff1 (mouse) (UniProt O88573)
Bst2 (mouse) = Bst2 (mouse) (UniProt Q8R2Q8)
Bst2 (mouse), sequence (Q8R2Q8 1-152 limits assumed): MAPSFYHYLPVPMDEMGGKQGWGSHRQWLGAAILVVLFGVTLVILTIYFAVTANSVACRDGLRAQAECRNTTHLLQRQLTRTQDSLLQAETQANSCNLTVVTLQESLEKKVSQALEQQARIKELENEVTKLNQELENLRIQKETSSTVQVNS

Las1l (mouse) = Las1l (mouse) (UniProt A2BE28)
Plekha7 (mouse) = Plekha7 (mouse) (UniProt Q3UIL6)
Plekha7 (mouse), sequence (Q3UIL6 whole entry): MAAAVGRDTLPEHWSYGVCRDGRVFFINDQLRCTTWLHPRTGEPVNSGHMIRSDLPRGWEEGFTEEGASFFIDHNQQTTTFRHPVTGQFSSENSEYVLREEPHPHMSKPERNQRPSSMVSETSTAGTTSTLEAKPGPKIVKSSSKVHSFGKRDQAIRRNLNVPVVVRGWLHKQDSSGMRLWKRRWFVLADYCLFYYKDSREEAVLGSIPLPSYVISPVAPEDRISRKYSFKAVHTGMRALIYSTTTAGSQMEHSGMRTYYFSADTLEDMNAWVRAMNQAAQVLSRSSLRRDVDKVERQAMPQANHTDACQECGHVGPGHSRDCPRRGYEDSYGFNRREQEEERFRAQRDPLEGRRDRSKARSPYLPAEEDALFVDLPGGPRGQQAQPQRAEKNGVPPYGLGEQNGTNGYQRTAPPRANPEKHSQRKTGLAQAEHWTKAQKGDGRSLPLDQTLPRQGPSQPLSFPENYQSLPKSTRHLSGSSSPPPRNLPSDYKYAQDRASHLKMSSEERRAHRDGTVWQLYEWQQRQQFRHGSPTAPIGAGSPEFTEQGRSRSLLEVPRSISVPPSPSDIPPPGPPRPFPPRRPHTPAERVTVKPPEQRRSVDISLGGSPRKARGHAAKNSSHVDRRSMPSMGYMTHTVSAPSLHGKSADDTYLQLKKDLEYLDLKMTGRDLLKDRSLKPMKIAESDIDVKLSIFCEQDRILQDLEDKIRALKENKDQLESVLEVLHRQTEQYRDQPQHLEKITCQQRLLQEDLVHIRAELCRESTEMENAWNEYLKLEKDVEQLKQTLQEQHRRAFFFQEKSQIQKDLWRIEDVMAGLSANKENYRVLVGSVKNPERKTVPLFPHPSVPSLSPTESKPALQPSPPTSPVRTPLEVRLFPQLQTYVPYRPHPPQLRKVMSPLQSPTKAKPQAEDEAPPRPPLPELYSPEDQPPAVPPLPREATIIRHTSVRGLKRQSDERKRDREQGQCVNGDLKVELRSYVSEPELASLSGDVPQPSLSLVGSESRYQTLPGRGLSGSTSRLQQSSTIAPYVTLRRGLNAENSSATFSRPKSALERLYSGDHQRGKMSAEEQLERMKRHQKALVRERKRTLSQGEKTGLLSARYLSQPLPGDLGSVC

Ddx20 (mouse) = Ddx20 (mouse) (UniProt Q9JJY4)
Rpn1 (mouse) = Rpn1 (mouse) (UniProt Q91YQ5)
Kpnb1 (mouse) = Kpnb1 (mouse) (UniProt P70168)
Cpsf1 (mouse) = Cpsf1 (mouse) (UniProt Q9EPU4)
Cpsf1 (mouse), sequence (Q9EPU4 whole entry): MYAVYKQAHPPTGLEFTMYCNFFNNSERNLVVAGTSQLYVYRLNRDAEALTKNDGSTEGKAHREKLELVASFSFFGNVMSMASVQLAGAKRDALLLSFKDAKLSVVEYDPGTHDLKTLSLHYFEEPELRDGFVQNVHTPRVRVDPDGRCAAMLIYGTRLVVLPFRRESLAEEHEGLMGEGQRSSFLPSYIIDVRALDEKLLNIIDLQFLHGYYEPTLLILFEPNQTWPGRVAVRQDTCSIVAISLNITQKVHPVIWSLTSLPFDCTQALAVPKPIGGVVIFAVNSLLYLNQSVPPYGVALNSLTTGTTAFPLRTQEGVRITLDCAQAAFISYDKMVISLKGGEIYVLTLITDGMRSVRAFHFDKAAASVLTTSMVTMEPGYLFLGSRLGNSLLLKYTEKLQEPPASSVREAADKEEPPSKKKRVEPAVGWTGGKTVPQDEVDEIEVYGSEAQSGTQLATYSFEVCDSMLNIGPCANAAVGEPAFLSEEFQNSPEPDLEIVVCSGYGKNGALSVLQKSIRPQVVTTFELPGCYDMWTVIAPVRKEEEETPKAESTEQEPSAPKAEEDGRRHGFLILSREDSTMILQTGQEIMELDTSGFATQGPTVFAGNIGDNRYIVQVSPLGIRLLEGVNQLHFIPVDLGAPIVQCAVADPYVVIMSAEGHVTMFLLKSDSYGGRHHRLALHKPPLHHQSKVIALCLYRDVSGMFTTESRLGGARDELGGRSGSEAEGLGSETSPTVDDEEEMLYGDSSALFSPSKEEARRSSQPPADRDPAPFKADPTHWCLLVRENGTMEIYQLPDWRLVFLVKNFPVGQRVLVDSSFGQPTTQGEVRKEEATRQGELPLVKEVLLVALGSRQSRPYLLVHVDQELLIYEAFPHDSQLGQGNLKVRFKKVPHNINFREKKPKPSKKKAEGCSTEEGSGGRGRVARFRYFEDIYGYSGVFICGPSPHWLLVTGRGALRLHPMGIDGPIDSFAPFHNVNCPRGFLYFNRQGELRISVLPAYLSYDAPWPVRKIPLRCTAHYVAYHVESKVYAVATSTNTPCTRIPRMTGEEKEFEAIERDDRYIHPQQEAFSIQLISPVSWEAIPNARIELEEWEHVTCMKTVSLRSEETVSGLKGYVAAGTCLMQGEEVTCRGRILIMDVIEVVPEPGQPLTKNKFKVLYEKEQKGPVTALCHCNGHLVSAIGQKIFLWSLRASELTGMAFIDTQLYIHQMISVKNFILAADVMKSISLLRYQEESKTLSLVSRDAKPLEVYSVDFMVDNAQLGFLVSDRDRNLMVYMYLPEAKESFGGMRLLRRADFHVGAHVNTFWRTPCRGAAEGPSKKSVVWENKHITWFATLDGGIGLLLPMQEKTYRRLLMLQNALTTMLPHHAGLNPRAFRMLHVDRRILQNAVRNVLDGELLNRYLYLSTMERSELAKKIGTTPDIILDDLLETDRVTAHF

Rfc5 (mouse) = Rfc5 (mouse) (UniProt Q9D0F6)
Rfc5 (mouse), sequence (Q9D0F6 whole entry): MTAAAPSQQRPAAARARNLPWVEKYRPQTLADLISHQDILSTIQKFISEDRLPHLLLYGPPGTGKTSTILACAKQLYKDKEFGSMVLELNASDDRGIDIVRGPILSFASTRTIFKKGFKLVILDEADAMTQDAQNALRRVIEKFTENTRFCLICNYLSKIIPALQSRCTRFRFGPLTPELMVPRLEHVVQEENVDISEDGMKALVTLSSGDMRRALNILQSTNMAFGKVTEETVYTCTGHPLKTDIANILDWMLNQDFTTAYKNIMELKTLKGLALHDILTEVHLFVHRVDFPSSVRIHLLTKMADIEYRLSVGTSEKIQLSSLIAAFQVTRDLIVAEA

Lmna (mouse) = Lmna (mouse) (UniProt P48678)

Akap8 (mouse), sequence (Q9DBR0 whole entry): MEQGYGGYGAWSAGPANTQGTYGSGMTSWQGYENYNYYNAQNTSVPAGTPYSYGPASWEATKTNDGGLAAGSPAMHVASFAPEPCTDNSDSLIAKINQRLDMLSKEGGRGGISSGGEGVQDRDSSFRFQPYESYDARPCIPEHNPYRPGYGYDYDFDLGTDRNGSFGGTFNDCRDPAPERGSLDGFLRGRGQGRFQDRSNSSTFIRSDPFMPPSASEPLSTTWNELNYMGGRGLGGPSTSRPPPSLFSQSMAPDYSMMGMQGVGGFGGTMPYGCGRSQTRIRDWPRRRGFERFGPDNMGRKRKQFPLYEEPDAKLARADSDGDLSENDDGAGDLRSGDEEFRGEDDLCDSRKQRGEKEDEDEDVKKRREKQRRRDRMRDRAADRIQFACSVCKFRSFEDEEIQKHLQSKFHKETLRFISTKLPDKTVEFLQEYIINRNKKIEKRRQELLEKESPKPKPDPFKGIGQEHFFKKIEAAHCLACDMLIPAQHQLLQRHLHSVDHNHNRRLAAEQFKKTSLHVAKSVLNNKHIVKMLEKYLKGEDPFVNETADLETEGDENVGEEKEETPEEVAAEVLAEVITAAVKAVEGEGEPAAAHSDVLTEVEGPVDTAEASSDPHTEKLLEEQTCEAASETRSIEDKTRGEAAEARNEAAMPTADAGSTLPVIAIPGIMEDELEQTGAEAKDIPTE

Nucleus peptide (Cttn (mouse)): 1 peptides
Nucleus spectra (Cttn (mouse)): 2 spectra
Nucleus peptide (Dnmt3b (mouse)): 0 peptides
Nucleus spectra (Dnmt3b (mouse)): 0 spectra
Nucleus peptide (Sfrs17b (mouse)): 2 peptides
Nucleus spectra (Sfrs17b (mouse)): 2 spectra
Nucleus peptide (Akap8 (mouse)): 0 peptides
Nucleus spectra (Akap8 (mouse)): 0 spectra
Nucleus peptide (Chd4 (mouse)): 4 peptides
Nucleus spectra (Chd4 (mouse)): 6 spectra
Nucleus peptide (Uba1 (mouse)): 3 peptides
Nucleus spectra (Uba1 (mouse)): 5 spectra
Nucleus peptide (Ogt (mouse)): 0 peptides
Nucleus spectra (Ogt (mouse)): 0 spectra
Nucleus peptide (Ssr1 (mouse)): 0 peptides
Nucleus spectra (Ssr1 (mouse)): 0 spectra
Nucleus peptide (Hspd1 (mouse)): 5 peptides
Nucleus spectra (Hspd1 (mouse)): 11 spectra
Nucleus peptide (Cbx1 (mouse)): 1 peptides
Nucleus spectra (Cbx1 (mouse)): 4 spectra
Nucleus peptide (Nup160 (mouse)): 6 peptides
Nucleus spectra (Nup160 (mouse)): 11 spectra
Nucleus peptide (Rad21 (mouse)): 0 peptides
Nucleus spectra (Rad21 (mouse)): 0 spectra
Nucleus peptide (Akr1b3 (mouse)): 2 peptides
Nucleus spectra (Akr1b3 (mouse)): 2 spectra
Nucleus peptide (Ywhae (mouse)): 1 peptides
Nucleus spectra (Ywhae (mouse)): 1 spectra
Nucleus peptide (Smarca4 (mouse)): 2 peptides
Nucleus spectra (Smarca4 (mouse)): 2 spectra
Nucleus peptide (Hspa5 (mouse)): 10 peptides
Nucleus spectra (Hspa5 (mouse)): 13 spectra
Nucleus peptide (Dnmt3l (mouse)): 2 peptides
Nucleus spectra (Dnmt3l (mouse)): 4 spectra
Nucleus peptide (Pou5f1 (mouse)): 2 peptides
Nucleus spectra (Pou5f1 (mouse)): 3 spectra
Nucleus peptide (Ddb1 (mouse)): 0 peptides
Nucleus spectra (Ddb1 (mouse)): 0 spectra
Nucleus peptide (Rif1 (mouse)): 8 peptides
Nucleus spectra (Rif1 (mouse)): 17 spectra
Nucleus peptide (Cct7 (mouse)): 0 peptides
Nucleus spectra (Cct7 (mouse)): 0 spectra
Nucleus peptide (Seh1l (mouse)): 2 peptides
Nucleus spectra (Seh1l (mouse)): 4 spectra
Nucleus peptide (Vdac1 (mouse)): 1 peptides
Nucleus spectra (Vdac1 (mouse)): 1 spectra
Nucleus peptide (Gcn1l1 (mouse)): 3 peptides
Nucleus spectra (Gcn1l1 (mouse)): 5 spectra
Nucleus peptide (Nup188 (mouse)): 2 peptides
Nucleus spectra (Nup188 (mouse)): 3 spectra
Nucleus peptide (Tet1 (mouse)): 1 peptides
Nucleus peptide (Mcm4 (mouse)): 2 peptides
Nucleus spectra (Mcm4 (mouse)): 2 spectra
Nucleus peptide (Hmga1 (mouse)): 1 peptides
Nucleus spectra (Hmga1 (mouse)): 8 spectra
Nucleus peptide (Zfp281 (mouse)): 3 peptides
Nucleus spectra (Zfp281 (mouse)): 5 spectra
Nucleus peptide (Pcnt (mouse)): 0 peptides
Nucleus spectra (Pcnt (mouse)): 0 spectra
Nucleus peptide (Aff1 (mouse)): 0 peptides
Nucleus spectra (Aff1 (mouse)): 0 spectra
Nucleus peptide (Bst2 (mouse)): 1 peptides
Nucleus spectra (Bst2 (mouse)): 1 spectra
Nucleus peptide (Las1l (mouse)): 2 peptides
Nucleus spectra (Las1l (mouse)): 3 spectra
Nucleus peptide (Plekha7 (mouse)): 1 peptides
Nucleus spectra (Plekha7 (mouse)): 1 spectra
Nucleus peptide (Ddx20 (mouse)): 1 peptides
Nucleus spectra (Ddx20 (mouse)): 1 spectra
Nucleus peptide (Rpn1 (mouse)): 0 peptides
Nucleus spectra (Rpn1 (mouse)): 0 spectra
Nucleus peptide (Kpnb1 (mouse)): 5 peptides
Nucleus spectra (Kpnb1 (mouse)): 13 spectra
Nucleus peptide (Cpsf1 (mouse)): 0 peptides
Nucleus spectra (Cpsf1 (mouse)): 0 spectra
Nucleus peptide (Rfc5 (mouse)): 0 peptides
Nucleus spectra (Rfc5 (mouse)): 0 spectra
Nucleus peptide (Lmna (mouse)): 1 peptides
Nucleus spectra (Lmna (mouse)): 3 spectra
Substance: 2x Flag tag only (control) (peptide)

Nucleus peptide (Cttn (mouse)): 4 peptides
Nucleus spectra (Cttn (mouse)): 9 spectra
Nucleus peptide (Dnmt3b (mouse)): 4 peptides
Nucleus spectra (Dnmt3b (mouse)): 9 spectra
Nucleus peptide (Sfrs17b (mouse)): 3 peptides
Nucleus spectra (Sfrs17b (mouse)): 8 spectra
Nucleus peptide (Akap8 (mouse)): 4 peptides
Nucleus spectra (Akap8 (mouse)): 12 spectra
Nucleus peptide (Chd4 (mouse)): 15 peptides
Nucleus spectra (Chd4 (mouse)): 26 spectra
Nucleus peptide (Uba1 (mouse)): 10 peptides
Nucleus spectra (Uba1 (mouse)): 18 spectra
Nucleus peptide (Ogt (mouse)): 7 peptides
Nucleus spectra (Ogt (mouse)): 12 spectra
Nucleus peptide (Ssr1 (mouse)): 3 peptides
Nucleus spectra (Ssr1 (mouse)): 9 spectra
Nucleus peptide (Hspd1 (mouse)): 16 peptides
Nucleus spectra (Hspd1 (mouse)): 44 spectra
Nucleus peptide (Cbx1 (mouse)): 2 peptides
Nucleus spectra (Cbx1 (mouse)): 12 spectra
Nucleus peptide (Nup160 (mouse)): 12 peptides
Nucleus spectra (Nup160 (mouse)): 24 spectra
Nucleus peptide (Rad21 (mouse)): 3 peptides
Nucleus spectra (Rad21 (mouse)): 6 spectra
Nucleus peptide (Akr1b3 (mouse)): 4 peptides
Nucleus spectra (Akr1b3 (mouse)): 11 spectra
Nucleus peptide (Ywhae (mouse)): 3 peptides
Nucleus spectra (Ywhae (mouse)): 6 spectra
Nucleus peptide (Smarca4 (mouse)): 5 peptides
Nucleus spectra (Smarca4 (mouse)): 8 spectra
Nucleus peptide (Hspa5 (mouse)): 13 peptides
Nucleus spectra (Hspa5 (mouse)): 30 spectra
Nucleus peptide (Dnmt3l (mouse)): 4 peptides
Nucleus spectra (Dnmt3l (mouse)): 10 spectra
Nucleus peptide (Pou5f1 (mouse)): 4 peptides
Nucleus spectra (Pou5f1 (mouse)): 13 spectra
Nucleus peptide (Ddb1 (mouse)): 3 peptides
Nucleus spectra (Ddb1 (mouse)): 3 spectra
Nucleus peptide (Rif1 (mouse)): 37 peptides
Nucleus spectra (Rif1 (mouse)): 109 spectra
Nucleus peptide (Cct7 (mouse)): 3 peptides
Nucleus spectra (Cct7 (mouse)): 5 spectra
Nucleus peptide (Seh1l (mouse)): 5 peptides
Nucleus spectra (Seh1l (mouse)): 13 spectra
Nucleus peptide (Vdac1 (mouse)): 4 peptides
Nucleus spectra (Vdac1 (mouse)): 5 spectra
Nucleus peptide (Gcn1l1 (mouse)): 14 peptides
Nucleus spectra (Gcn1l1 (mouse)): 24 spectra
Nucleus peptide (Nup188 (mouse)): 4 peptides
Nucleus spectra (Nup188 (mouse)): 7 spectra
Nucleus peptide (Tet1 (mouse)): 14 peptides
Nucleus spectra (Tet1 (mouse)): 41 spectra
Nucleus peptide (Mcm4 (mouse)): 6 peptides
Nucleus spectra (Mcm4 (mouse)): 13 spectra
Nucleus peptide (Hmga1 (mouse)): 5 peptides
Nucleus spectra (Hmga1 (mouse)): 18 spectra
Nucleus peptide (Zfp281 (mouse)): 14 peptides
Nucleus spectra (Zfp281 (mouse)): 49 spectra
Nucleus peptide (Pcnt (mouse)): 5 peptides
Nucleus spectra (Pcnt (mouse)): 6 spectra
Nucleus peptide (Aff1 (mouse)): 3 peptides
Nucleus spectra (Aff1 (mouse)): 6 spectra
Nucleus peptide (Bst2 (mouse)): 4 peptides
Nucleus spectra (Bst2 (mouse)): 12 spectra
Nucleus peptide (Las1l (mouse)): 9 peptides
Nucleus spectra (Las1l (mouse)): 21 spectra
Nucleus peptide (Plekha7 (mouse)): 4 peptides
Nucleus spectra (Plekha7 (mouse)): 6 spectra
Nucleus peptide (Ddx20 (mouse)): 3 peptides
Nucleus spectra (Ddx20 (mouse)): 7 spectra
Nucleus peptide (Rpn1 (mouse)): 3 peptides
Nucleus spectra (Rpn1 (mouse)): 5 spectra
Nucleus peptide (Kpnb1 (mouse)): 15 peptides
Nucleus spectra (Kpnb1 (mouse)): 43 spectra
Nucleus peptide (Cpsf1 (mouse)): 4 peptides
Nucleus spectra (Cpsf1 (mouse)): 8 spectra
Nucleus peptide (Rfc5 (mouse)): 3 peptides
Nucleus spectra (Rfc5 (mouse)): 5 spectra
Nucleus peptide (Lmna (mouse)): 6 peptides
Nucleus spectra (Lmna (mouse)): 13 spectra
Substance: human AID containing two tandem Flag tags (Flag-human AID) (from UniProt Q9GZX7 1-198) (enzyme)
